The supplement of paper PMC5998384

How the values were obtained:
[1] = system: HeLa Kyoto; experiment: solubility change mitosis vs G1/S (difference of NP-40 vs SDS log2 ratios) (log2 ratio difference); higher = more soluble in mitosis
[2] = system: HeLa Kyoto; experiment: thermal stability score vs G1/S (z-score of summed log2 fold changes over temperatures); higher = more thermally stable than in G1/S
[3] = system: HeLa Kyoto; experiment: melting temperature (median over replicates), in situ; higher = more thermally stable
[4] = system: HeLa Kyoto; experiment: solubility in G1/S (NP-40 vs SDS abundance) (log2 ratio); higher = more soluble; settings: cell cycle stage: G1/S
[5] = cell cycle stage: early G1 (4.5 h after nocodazole release)
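Wherever melting temperature (median over replicates), in situ is given: HeLa Kyoto cells synchronized by double thymidine or nocodazole block, proteins quantified by TMT10plex mass spectrometry, three independent biological replicates.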
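Wherever solubility change mitosis vs G1/S (difference of NP-40 vs SDS log2 ratios) is given: synchronized HeLa Kyoto cells (double thymidine block for G1/S, nocodazole release for mitosis), protein amounts in NP-40 versus SDS lysates quantified by mass spectrometry, three biological replicates.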
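Wherever solubility in G1/S (NP-40 vs SDS abundance) is given: HeLa Kyoto cells arrested at G1/S by double thymidine block, proteins quantified by TMT10plex mass spectrometry in mild NP-40 versus SDS extracts, three biological replicates.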
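Wherever thermal stability score vs G1/S (z-score of summed log2 fold changes over temperatures) is given: synchronized HeLa Kyoto cells, proteins quantified by TMT10plex mass spectrometry, three biological replicates, mitosis taken 0.5 h after nocodazole release, G1/S directly after double thymidine block.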

## MLRRRGSPGMGVHVGAALGALWFCLTGALEVQVPEDPVVALVGTDATLCCSFSPEPGFSLAQLNLIWQLTDTKQLVHSFAEGQDQGSAYANRTALFPDLLAQGNASLRLQRVRVADEGSFTCFVSIRDFGSAAVSLQVAAPYSKPSMTLEPNKDLRPGDTVTITCSSYQGYPEAEVFWQDGQGVPLTGNVTTSQMANEQGLFDVHSILRVVLGANGTYSCLVRNPVLQQDAHSSVTITPQRSPTGAVEVQVPEDPVVALVGTDATLRCSFSPEPGFSLAQLNLIWQLTDTKQLVHSFTEGRDQGSAYANRTALFPDLLAQGNASLRLQRVRVADEGSFTCFVSIRDFGSAAVSLQVAAPYSKPSMTLEPNKDLRPGDTVTITCSSYRGYPEAEVFWQDGQGVPLTGNVTTSQMANEQGLFDVHSVLRVVLGANGTYSCLVRNPVLQQDAHGSVTITGQPMTFPPEALWVTVGLSVCLIALLVALAFVCWRKIKQSCEEENAGAEDQDGEGEGSKTALQPLKHSDSKEDDGQEIA [CD276]
[1]
  solubility change mitosis (log2): -0.0859
[2]; [5]
  thermal stability score: -2.08
[2]; cell cycle stage: mitosis
  thermal stability score: -3.76
[3]; cell cycle stage: G1/S
  melting temperature: 59 °C
[3]; cell cycle stage: mitosis
  melting temperature: 57.1 °C
[4]
  solubility in G1/S (log2): 0.244

## MADDLGDEWWENQPTGAGSSPEASDGEGEGDTEVMQQETVPVPVPSEKTKQPKECFLIQPKERKENTTKTRKRRKKKITDVLAKSEPKPGLPEDLQKLMKDYYSSRRLVIELEELNLPDSCFLKANDLTHSLSSYLKEICPKWVKLRKNHSEKKSVLMLIICSSAVRALELIRSMTAFRGDGKVIKLFAKHIKVQAQVKLLEKRVVHLGVGTPGRIKELVKQGGLNLSPLKFLVFDWNWRDQKLRRMMDIPEIRKEVFELLEMGVLSLCKSESLKLGLF [CMSS1]
[1]
  solubility change mitosis (log2): 0.103
[2]; [5]
  thermal stability score: 1.03
[2]; cell cycle stage: mitosis
  thermal stability score: 0.589
[3]; cell cycle stage: G1/S
  melting temperature: 49.9 °C
[3]; cell cycle stage: mitosis
  melting temperature: 50.3 °C
[4]
  solubility in G1/S (log2): -0.211

## MGLLSQGSPLSWEETKRHADHVRRHGILQFLHIYHAVKDRHKDVLKWGDEVEYMLVSFDHENKKVRLVLSGEKVLETLQEKGERTNPNHPTLWRPEYGSYMIEGTPGQPYGGTMSEFNTVEANMRKRRKEATSILEENQALCTITSFPRLGCPGFTLPEVKPNPVEGGASKSLFFPDEAINKHPRFSTLTRNIRHRRGEKVVINVPIFKDKNTPSPFIETFTEDDEASRASKPDHIYMDAMGFGMGNCCLQVTFQACSISEARYLYDQLATICPIVMALSAASPFYRGYVSDIDCRWGVISASVDDRTREERGLEPLKNNNYRISKSRYDSIDSYLSKCGEKYNDIDLTIDKEIYEQLLQEGIDHLLAQHVAHLFIRDPLTLFEEKIHLDDANESDHFENIQSTNWQTMRFKPPPPNSDIGWRVEFRPMEVQLTDFENSAYVVFVVLLTRVILSYKLDFLIPLSKVDENMKVAQKRDAVLQGMFYFRKDICKGGNAVVDGCGKAQNSTELAAEEYTLMSIDTIINGKEGVFPGLIPILNSYLENMEVDVDTRCSILNYLKLIKKRASGELMTVARWMREFIANHPDYKQDSVITDEMNYSLILKCNQIANELCECPELLGSAFRKVKYSGSKTDSSN [GCLC]
[1]
  solubility change mitosis (log2): -0.172
[2]; [5]
  thermal stability score: -0.677
[2]; cell cycle stage: mitosis
  thermal stability score: -1.1
[3]; cell cycle stage: G1/S
  melting temperature: 52 °C
[3]; cell cycle stage: mitosis
  melting temperature: 51.8 °C
[4]
  solubility in G1/S (log2): 0.0288

## MDRGTLPLAVALLLASCSLSPTSLAETVHCDLQPVGPERGEVTYTTSQVSKGCVAQAPNAILEVHVLFLEFPTGPSQLELTLQASKQNGTWPREVLLVLSVNSSVFLHLQALGIPLHLAYNSSLVTFQEPPGVNTTELPSFPKTQILEWAAERGPITSAAELNDPQSILLRLGQAQGSLSFCMLEASQDMGRTLEWRPRTPALVRGCHLEGVAGHKEAHILRVLPGHSAGPRTVTVKVELSCAPGDLDAVLILQGPPYVSWLIDANHNMQIWTTGEYSFKIFPEKNIRGFKLPDTPQGLLGEARMLNASIVASFVELPLASIVSLHASSCGGRLQTSPAPIQTTPPKDTCSPELLMSLIQTKCADDAMTLVLKKELVAHLKCTITGLTFWDPSCEAEDRGDKFVLRSAYSSCGMQVSASMISNEAVVNILSSSSPQRKKVHCLNMDSLSFQLGLYLSPHFLQASNTIEPGQQSFVQVRVSPSVSEFLLQLDSCHLDLGPEGGTVELIQGRAAKGNCVSLLSPSPEGDPRFSFLLHFYTVPIPKTGTLSCTVALRPKTGSQDQEVHRTVFMRLNIISPDLSGCTSKGLVLPAVLGITFGAFLIGALLTAALWYIYSHTRSPSKREPVVAVAAPASSESSSTNHSIGSTQSTPCSTSSMA [ENG]
[1]
  solubility change mitosis (log2): -0.131
[2]; [5]
  thermal stability score: -1.8
[2]; cell cycle stage: mitosis
  thermal stability score: -2.37
[3]; cell cycle stage: G1/S
  melting temperature: 56.1 °C
[3]; cell cycle stage: mitosis
  melting temperature: 55.6 °C
[4]
  solubility in G1/S (log2): 0.178

## MESYHKPDQQKLQALKDTANRLRISSIQATTAAGSGHPTSCCSAAEIMAVLFFHTMRYKSQDPRNPHNDRFVLSKGHAAPILYAVWAEAGFLAEAELLNLRKISSDLDGHPVPKQAFTDVATGSLGQGLGAACGMAYTGKYFDKASYRVYCLLGDGELSEGSVWEAMAFASIYKLDNLVAILDINRLGQSDPAPLQHQMDIYQKRCEAFGWHAIIVDGHSVEELCKAFGQAKHQPTAIIAKTFKGRGITGVEDKESWHGKPLPKNMAEQIIQEIYSQIQSKKKILATPPQEDAPSVDIANIRMPSLPSYKVGDKIATRKAYGQALAKLGHASDRIIALDGDTKNSTFSEIFKKEHPDRFIECYIAEQNMVSIAVGCATRNRTVPFCSTFAAFFTRAFDQIRMAAISESNINLCGSHCGVSIGEDGPSQMALEDLAMFRSVPTSTVFYPSDGVATEKAVELAANTKGICFIRTSRPENAIIYNNNEDFQVGQAKVVLKSKDDQVTVIGAGVTLHEALAAAELLKKEKINIRVLDPFTIKPLDRKLILDSARATKGRILTVEDHYYEGGIGEAVSSAVVGEPGITVTHLAVNRVPRSGKPAELLKMFGIDRDAIAQAVRGLITKA [TKT]
[1]
  solubility change mitosis (log2): -0.0914
[2]; [5]
  thermal stability score: -3.36
[2]; cell cycle stage: mitosis
  thermal stability score: -2.81
[3]; cell cycle stage: G1/S
  melting temperature: 61.8 °C
[3]; cell cycle stage: mitosis
  melting temperature: 60.1 °C
[4]
  solubility in G1/S (log2): 0.148
